Measurements from US20120189639A1 (Merck Sharp & Dohme, published 2012).

B1: 49A1 (antibody, V domains shown)
VH: EVQLQESGPSLVKPSQTLSLTCSVTGDSITSGYWNWIRKFPGNKFEYMGFISYSGNTYYNPSLRSRISITRDTSKNQYFLHLNSVTTEDTATYYCSRRHLISGYGWFAYWGQGTLVTVSA
VL: VIVMTQSHKFMSTSIGDRVNITCKASQDVISAVAWYQQKPGQSPKLLIYWASTRHTGVPDRFTGSGSGTDFTLTINSVQAEDRALYYCQQHSYTPPWTFGGGTNLEIKR
notes: Parental rodent anti-human GITR monoclonal antibody from a hybridoma; kappa VL; also called 49A1.B1
B2: 17F10 (antibody, V domains shown)
VH: EVKLVESGGGFVKPGGSLKLSCAASGFTVRNYAMSWVRQTPEKRLEWVASISTGDRSYLPDSMKGRFTISRDNARNILYLQMSSLRSEDTAIYYCQRYFDFDSFAFWGQGTLVTVSA
VL: DIQMTQTPSSLSASLGDRVTISCRASQDINNFLNWYQQKPDGSLKLLIYYTSKLHSGVPSRFSGSGSGTDFSLTISNLDQEDVATYFCQQGHTLPPTFGGGTKLEVKR
notes: Parental rodent anti-human GITR monoclonal antibody from a hybridoma; kappa VL; also called 17F10.B1
B3: 3D6 (antibody, V domains shown)
VH: EVQLVESGGGLVQPGRSLKLSCAASGFTFSDYYMAWVRQAPTKGLEWVAYIHANGGSTYYRDSVRGRFSISRDNGKSTLYLQMDSLRSEDTATYYCTTGSFMYAADYYIMDAWGQGASVTVSS
VL: DVVMTQTPVSLSVSLGNQASISCRSSQSLLHSDGNTFLSWYFQKPGQSPQLLIYLASNRFSGVSNRFSGSGSGTDFTLKISRVEPEDLGVYYCFQHTHLPLTFGSGTKLEIKR
notes: Parental rodent anti-human GITR monoclonal antibody from a hybridoma; kappa VL; also called JL5.3D6; hybridoma PTA-9889
B4: 61F6 (antibody, V domains shown)
VH: QVQLQQSGAELARPGASVKMSCKASGYTFTSYTMHWVKQRPGQGLEWIGYINPRSVYTNYNQKFKDKATLTADKSSSTAYMQLSSLTSEDSAVYYCARLGGYYDTMDYWGQGTSVTVSS
VL: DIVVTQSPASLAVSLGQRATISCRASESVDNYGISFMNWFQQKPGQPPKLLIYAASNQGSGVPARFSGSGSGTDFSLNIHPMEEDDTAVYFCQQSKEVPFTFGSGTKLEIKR
notes: Parental rodent anti-human GITR monoclonal antibody from a hybridoma; kappa VL; also called 61F6.B9; hybridoma PTA-9893
B5: 61G6 (antibody, V domains shown)
VH: DVQLQESGPGLVKPSQSLSLTCTVTGYSITSDYAWNWIRQFPGNKLEWMGYISYSGSTRYNPSLKSRISITRDTSKNQFFLQLNSVTSEDTATYYCARQLGLRFFDYWGQGTTLTVSS
VL: QIVLTQSPALMSASPGEKVTMTCSANSTVNYMYWYQQKPRSSPKPCIYLTSNLASGVPARFSGSGSGTSYSLTISSMEAEDAATYYCQQWNSNPPTFGAGTKLELRR
notes: Parental rodent anti-human GITR monoclonal antibody from a hybridoma; kappa VL; also called 61G6.B6; hybridoma PTA-9891

target: T1, hGITR-hIgG (human, UniProt Q9Y5U5 26-161, limits assumed); assay: BIAcore SPR; hGITR-hIgG capture antigen, mAb analyte; apparent Kd
T1 construct: not shown: human IgG part of the fusion
T1 sequence: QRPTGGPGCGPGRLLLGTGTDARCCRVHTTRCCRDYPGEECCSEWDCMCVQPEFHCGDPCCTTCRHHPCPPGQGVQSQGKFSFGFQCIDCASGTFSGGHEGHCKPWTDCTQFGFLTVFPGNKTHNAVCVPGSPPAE
Experimental: (§1) BIAcore determinations are performed essentially as described at Example 4 of co-pending, commonly assigned U.S. patent application Ser. No. 11/511,635 (filed 29 Aug. 2006). Briefly, binding partners are immobilized on a BIAcore CM5 sensor chip using standard amine-coupling procedure. Kinetic constants for the various interactions are determined using BIAevaluation software 3.1. The Kd is determined using the calculated dissociation and association rate constants.

Row | Binder | Kd [nM]
1 | B1 | 0.665
2 | B2 | 0.111
3 | B3 | 8.05
4 | B4 | 12.2
5 | B5 | 15.6

target: T2, human GITR on naïve CD4+ T cells (human, UniProt Q9Y5U5 26-241); assay: cell-based or functional assay
T2 sequence: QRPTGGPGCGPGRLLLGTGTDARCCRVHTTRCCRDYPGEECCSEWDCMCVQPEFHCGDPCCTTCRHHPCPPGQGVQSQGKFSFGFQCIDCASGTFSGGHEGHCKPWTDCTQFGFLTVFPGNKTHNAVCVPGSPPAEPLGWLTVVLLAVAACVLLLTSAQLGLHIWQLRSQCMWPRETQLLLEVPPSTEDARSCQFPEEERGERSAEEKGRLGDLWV

Row | Binder | proliferation of naïve CD4+ T cells, mean, at 0.04 ng/mL Ab | proliferation of naïve CD4+ T cells, mean, at 0.15 ng/mL Ab | proliferation of naïve CD4+ T cells, mean, at 0.61 ng/mL Ab | proliferation of naïve CD4+ T cells, mean, at 2.4 ng/mL Ab | proliferation of naïve CD4+ T cells, mean, at 9.8 ng/mL Ab | proliferation of naïve CD4+ T cells, mean, at 39.1 ng/mL Ab | proliferation of naïve CD4+ T cells, mean, at 156 ng/mL Ab | proliferation of naïve CD4+ T cells, mean, at 625 ng/mL Ab | proliferation of naïve CD4+ T cells, mean, at 2500 ng/mL Ab | proliferation of naïve CD4+ T cells, mean, at 10000 ng/mL Ab
6 | B3 | 33300 | 30800 | 33800 | 43100 | 79300 | 124000 | 109000 | 111000 | 109000 | 96200
7 | B4 | 34900 | 32000 | 37600 | 61300 | 96300 | 107000 | 108000 | 105000 | 96300 | 93400
8 | B5 | 31000 | 35600 | 32600 | 28900 | 34300 | 40100 | 45600 | 75100 | 116000 | 135000

target: T2, human GITR on naïve CD4+ T cells; assay: cell-based or functional assay; remark: another data set of the same source

Row | Binder | proliferation of naïve CD4+ T cells, mean, at 0.4 ng/mL Ab | proliferation of naïve CD4+ T cells, mean, at 0.9 ng/mL Ab | proliferation of naïve CD4+ T cells, mean, at 2.2 ng/mL Ab | proliferation of naïve CD4+ T cells, mean, at 5.2 ng/mL Ab | proliferation of naïve CD4+ T cells, mean, at 12.6 ng/mL Ab | proliferation of naïve CD4+ T cells, mean, at 30.1 ng/mL Ab | proliferation of naïve CD4+ T cells, mean, at 72.3 ng/mL Ab | proliferation of naïve CD4+ T cells, mean, at 173.6 ng/mL Ab | proliferation of naïve CD4+ T cells, mean, at 416.7 ng/mL Ab | proliferation of naïve CD4+ T cells, mean, at 1000.0 ng/mL Ab
9 | B1 | 54300 | 54100 | 61100 | 72200 | 86000 | 95500 | 96100 | 93600 | 86300 | 78000
10 | B2 | 58700 | 62000 | 73400 | 77800 | 90200 | 87000 | 83500 | 87500 | 85700 | 89400

target: T1, hGITR-hIgG; assay: BIAcore SPR; hGITR-hIgG capture antigen, mAb analyte
Experimental: as §1

Row | Binder | koff [s⁻¹] | kon [M⁻¹ s⁻¹]
11 | B1 | 0.000318 | 478000
12 | B2 | 0.000146 | 1.31e+06
13 | B3 | 0.000766 | 95000
14 | B4 | 0.0135 | 1.11e+06
15 | B5 | 6.9e-05 | 4000
